Measurements published in patent US20060234906A1, “Structure of a complex of retinoblastoma protein bound to e2f, and uses thereof” (priority 2002, published 2006).

Target: T1, RbAB and RbABC (Homo sapiens, UniProt P06400)
T1 construct: non-tagged RbAB (residues 372-787); His6-RbABC (RESIDUES 380-929); made in house; host or cells: E. coli
T1 sequence (P06400 372-787 limits assumed): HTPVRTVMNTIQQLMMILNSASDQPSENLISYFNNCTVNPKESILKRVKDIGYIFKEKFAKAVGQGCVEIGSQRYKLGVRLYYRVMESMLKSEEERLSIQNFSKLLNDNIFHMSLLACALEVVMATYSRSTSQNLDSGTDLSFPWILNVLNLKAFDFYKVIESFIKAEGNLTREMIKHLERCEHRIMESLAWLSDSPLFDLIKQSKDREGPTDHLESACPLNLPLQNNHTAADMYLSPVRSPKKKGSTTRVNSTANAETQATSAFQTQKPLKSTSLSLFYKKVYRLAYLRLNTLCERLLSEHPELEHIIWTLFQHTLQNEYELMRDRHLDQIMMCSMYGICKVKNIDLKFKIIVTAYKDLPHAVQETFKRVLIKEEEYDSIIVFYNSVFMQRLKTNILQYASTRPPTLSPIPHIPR
T1 sequence (P06400 380-928 limits assumed): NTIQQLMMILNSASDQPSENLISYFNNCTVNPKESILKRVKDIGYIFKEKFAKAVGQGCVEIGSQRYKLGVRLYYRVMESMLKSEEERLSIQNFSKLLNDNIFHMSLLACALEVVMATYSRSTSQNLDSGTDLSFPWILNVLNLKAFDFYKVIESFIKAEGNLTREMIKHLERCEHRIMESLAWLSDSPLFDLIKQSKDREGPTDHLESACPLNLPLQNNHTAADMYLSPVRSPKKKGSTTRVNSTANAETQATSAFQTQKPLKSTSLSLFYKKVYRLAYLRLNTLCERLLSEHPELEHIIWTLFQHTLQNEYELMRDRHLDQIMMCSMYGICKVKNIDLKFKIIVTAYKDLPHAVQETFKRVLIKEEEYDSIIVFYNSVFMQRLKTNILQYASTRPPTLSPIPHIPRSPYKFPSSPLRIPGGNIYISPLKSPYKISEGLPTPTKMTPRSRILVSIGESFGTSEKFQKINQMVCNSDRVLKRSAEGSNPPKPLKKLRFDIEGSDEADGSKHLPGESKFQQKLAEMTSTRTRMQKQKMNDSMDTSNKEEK
Assay: Competition experiment (Ni column, SDS-PAGE): partition of E2F(243-437) between RbAB and RbABC
Type: binding
Conditions: His6-RbABC against non-tagged RbAB, proteins mixed at 40 μM
Procedure: Binding of the various E2F constructs to RbAB and RbABC was measured by isothermal titration calorimetry using a MicroCal Omega VP-ITC machine (MicroCal Inc., Northampton, USA). The E2F constructs at a concentration between 100-150 μM were titrated into 12-15 μM Rb at a temperature of 22° C. Proteins were dialysed against 50 mM Tris pH 7.6, 100 mM NaCl and 1 mM TCEP. After subtraction of the dilution heats, calorimetric data was analysed using the evaluation software MicroCal Origin v5.0 (MicroCal Software Inc.). For all of the titrations, the stoichiometry of ligand binding to Rb was very close to 1.0. For E2F(243-437) binding to Rb, the binding affinity and the heat change associated with binding were such that we could only establish that binding was tighter than 10 nM.
The proteins used in these experiments were His6-RbABC (RESIDUES 380-929); MW 66.07 kDa, non-tagged RbAB (residues 372-787); MW 48.67 KDa, are His6-RbAB (residues 376-792); MW 49.86 KDa, E2F(243-437); MW 21.45 KDa HPV E7 (residues 17-98); MW 9.38 KDa and E2F(409-426); MW 2.12 KDa. Protein concentrations were carefully determined by u.v. spectroscopy and confirmed by ITC titrations. The small acidic E2F proteins stain much weaker than Rb with Coomassie on SDS-PAGE. For all gel lanes contained a final RbAB concentration of ca. 7 μM. […]

partitioning between the two pRb species: approximately equal partitioning
B1: E2F(243-437): Recombinant human E2F1(243-437) expressed in E. coli (protein, UniProt Q01094 243-437, looked up, fragment)
chain: LAYVTCQDLRSIADPAEQMVMVIKAPPETQLQAVDSSENFQISLKSKQGPIDVFLCPEETVGGISPGKTPSQEVTSEEENRATDSATIVSPPPSSPPSSLTTDPSQSLLSLEQEPLLSRMGSLRAPVDEDRLSPLVAADSLLEHVREDFSGLLPEEFISLSPPHEALDYHFGLEEGEGIRDLFDCDFGDLTPLDF
